Data: PMC5747488

Experiments:
[1] = molecular target: retinoblastoma protein (pRb), endogenous in human cells (human (endogenous in HEK 293T, HeLa)) (UniProt P06400); test: co-IP; HeLa cells transfected with pORFV119^Flag, harvested 12 h post transfection; reciprocal IP (anti-Flag or anti-pRb), high stringency buffer with 300 mM NaCl; Western blot
[2] = molecular target: retinoblastoma protein (pRb), endogenous in human cells (human (endogenous in HEK 293T, HeLa)) (UniProt P06400); test: co-IP; HEK 293T cells transfected with pORFV119^Flag, pORFV119^LxGxE-Flag or pORFV113^Flag, harvested 12 h post transfection; reciprocal IP of total protein extracts (anti-Flag, anti-pRb or anti-TRAF2), high stringency buffer with 300 mM NaCl, overnight at 4°C, protein G agarose; Western blot
[3] = molecular target: retinoblastoma protein (pRb), endogenous in ovine OFTu cells (ovine (endogenous in OFTu)); test: co-IP; OFTu cells infected with Flag-tagged recombinant ORFV (MOI 10), harvested 12 h p.i.; reciprocal IP of total protein extracts (anti-Flag or antibody against the cellular protein), high stringency buffer with 300 mM NaCl, overnight at 4°C, protein G agarose; Western blot
[4] = molecular target: retinoblastoma protein (pRb), endogenous in ovine OFTu cells (ovine (endogenous in OFTu))
[5] = molecular target: ORFV119^Flag expressed by revertant virus OV-IA82-RV119^Flag (orf virus (ORFV) strain OV-IA82); test: co-IP; OFTu cells infected with Flag-tagged recombinant ORFV (MOI 10), harvested 12 h p.i.; reciprocal IP of total protein extracts (anti-Flag or antibody against the cellular protein), high stringency buffer with 300 mM NaCl, overnight at 4°C, protein G agarose; Western blot
[6] = molecular target: ORFV119^Flag (ORFV119-3xFlag fusion protein expressed from plasmid pORFV119^Flag) (orf virus (ORFV) strain OV-IA82); test: co-IP; HeLa cells transfected with pORFV119^Flag, harvested 12 h post transfection; reciprocal IP (anti-Flag or anti-pRb), high stringency buffer with 300 mM NaCl; Western blot
[7] = molecular target: ORFV119^Flag (ORFV119-3xFlag fusion protein expressed from plasmid pORFV119^Flag) (orf virus (ORFV) strain OV-IA82); test: co-IP; HEK 293T cells transfected with pORFV119^Flag, pORFV119^LxGxE-Flag or pORFV113^Flag, harvested 12 h post transfection; reciprocal IP of total protein extracts (anti-Flag, anti-pRb or anti-TRAF2), high stringency buffer with 300 mM NaCl, overnight at 4°C, protein G agarose; Western blot

ORFV119^Flag (ORFV119-3xFlag fusion protein expressed from plasmid pORFV119^Flag) (natural protein)
percentage co-immunoprecipitated [1]: 38.7%
percentage co-immunoprecipitated [2]: 28.4%

ORFV119^Flag expressed by revertant virus OV-IA82-RV119^Flag (natural protein)
percentage co-immunoprecipitated [3]: 18.5%

ORFV119^LxGxE-Flag expressed by revertant virus OV-IA82-RV119^LxGxE-Flag (natural protein)
fold increase of phosphorylated IKKα/β (Ser176/180) in OFTu cells infected with OV-IA82-RV119^LxGxE-Flag relative to OV-IA82, Western blot densitometry, 30 min and 1 h p.i. [4]: 27.4 fold
fold increase of phosphorylated IκBα (Ser32/36) in OFTu cells infected with OV-IA82-RV119^LxGxE-Flag relative to OV-IA82, Western blot densitometry, 30 min and 1 h p.i. [4]: 21.2 fold
fold increase of phosphorylated NF-κB-p65 (Ser536) in OFTu cells infected with OV-IA82-RV119^LxGxE-Flag relative to OV-IA82, Western blot densitometry, 30 min and 1 h p.i. [4]: 13.2 fold

retinoblastoma protein (pRb), endogenous in ovine OFTu cells (natural protein)
percentage co-immunoprecipitated [5]: 8.7%

B1: retinoblastoma protein (pRb), endogenous in human cells (natural protein)
chain: MPPKTPRKTAATAAAAAAEPPAPPPPPPPEEDPEQDSGPEDLPLVRLEFEETEEPDFTALCQKLKIPDHVRERAWLTWEKVSSVDGVLGGYIQKKKELWGICIFIAAVDLDEMSFTFTELQKNIEISVHKFFNLLKEIDTSTKVDNAMSRLLKKYDVLFALFSKLERTCELIYLTQPSSSISTEINSALVLKVSWITFLLAKGEVLQMEDDLVISFQLMLCVLDYFIKLSPPMLLKEPYKTAVIPINGSPRTPRRGQNRSARIAKQLENDTRIIEVLCKEHECNIDEVKNVYFKNFIPFMNSLGLVTSNGLPEVENLSKRYEEIYLKNKDLDARLFLDHDKTLQTDSIDSFETQRTPRKSNLDEEVNVIPPHTPVRTVMNTIQQLMMILNSASDQPSENLISYFNNCTVNPKESILKRVKDIGYIFKEKFAKAVGQGCVEIGSQRYKLGVRLYYRVMESMLKSEEERLSIQNFSKLLNDNIFHMSLLACALEVVMATYSRSTSQNLDSGTDLSFPWILNVLNLKAFDFYKVIESFIKAEGNLTREMIKHLERCEHRIMESLAWLSDSPLFDLIKQSKDREGPTDHLESACPLNLPLQNNHTAADMYLSPVRSPKKKGSTTRVNSTANAETQATSAFQTQKPLKSTSLSLFYKKVYRLAYLRLNTLCERLLSEHPELEHIIWTLFQHTLQNEYELMRDRHLDQIMMCSMYGICKVKNIDLKFKIIVTAYKDLPHAVQETFKRVLIKEEEYDSIIVFYNSVFMQRLKTNILQYASTRPPTLSPIPHIPRSPYKFPSSPLRIPGGNIYISPLKSPYKISEGLPTPTKMTPRSRILVSIGESFGTSEKFQKINQMVCNSDRVLKRSAEGSNPPKPLKKLRFDIEGSDEADGSKHLPGESKFQQKLAEMTSTRTRMQKQKMNDSMDTSNKEEK
percentage co-immunoprecipitated [6]: 21.5%
percentage co-immunoprecipitated [7]: 16.7%
